Measured values reported in US20240132624A1 (Ablynx, published 2024).

How the values were obtained:
[1] = molecular target: T1, cyno FcRn/b2M (cyno, UniProt Q8SPV9 24-297; Q8SPW0 21-119, biotinylated); assay: SPR pH 6.0; pH 6.0; off-rate of periplasmic extract, cyno FcRn
T1 construct: bought recombinant biotinylated protein (Immunitrack ITF05 or ACRO FCM-C82W5); also called cFcRn; cFcRn/cb2M
Experimental: (§1) All kinetic measurements have been performed on ProteOn XPR36 (BioRad Laboratories, Inc.), MASS-2 (Sierra sensors, Gmbh) or SPR-32 (Bruker Corporation). […] The phytip purified periplasmic extracts were diluted 1:10 in running buffer (CPA+150 mM NaCl+0.005% Tw20 at pH 5.5, pH 6.0 or pH 7.4) and injected over the ligand surfaces (association: 120 s at 45 μL/min; dissociation: 600s-3600 s at 45 μL/min). Experiments were carried out at 25° C.

[2] = molecular target: T2, human FcRn/b2M (human, UniProt P61769 21-119, biotinylated); assay: SPR pH 6.0; pH 6.0; off-rate of periplasmic extract, human FcRn
T2 construct: bought recombinant biotinylated protein (ACRO FCM-H82W4 or Immunitrack ITF01); also called hFcRn; hFcRn/hb2M
Experimental: as §1

[3] = molecular target: T2, human FcRn/b2M; assay: SPR pH 6.0
[4] = molecular target: T2, human FcRn/b2M; assay: SPR pH 6.0; remark: listed apart in the source
[5] = molecular target: T1, cyno FcRn/b2M; assay: SPR pH 6.0
[6] = molecular target: T2, human FcRn/b2M; assay: SPR pH 7.4
[7] = molecular target: T1, cyno FcRn/b2M; assay: SPR pH 7.4
[8] = molecular target: T2, human FcRn/b2M; assay: SPR; pH 7.4 vs pH 6.0
[9] = molecular target: T1, cyno FcRn/b2M; assay: SPR; pH 7.4 vs pH 6.0
[10] = molecular target: T2, human FcRn/b2M; assay: SPR pH 6.0; remark: listed apart in the source
Experimental: (§2) The affinities of the monovalent purified, tagless ISVDs were determined for human FcRn on ProteOn XPR36 (BioRad Laboratories, Inc.), the MASS-2 (Sierra sensors, Gmbh) or SPR-32 (Bruker Corporation) instrument. In the same way, the affinities of bivalent ISVD constructs comprising two of the same monovalent building blocks of purified, tagless ISVDs were determined for human FcRn on ProteOn XPR36 (BioRad Laboratories, Inc.), the MASS-2 (Sierra sensors, Gmbh) or SPR-32 (Bruker Corporation) instrument. For affinity measurements, ˜1000-3000RU (hFcRn/hb2M; ACRO Biosystems FCM-H82W4) was captured on a ProteOn NLC sensor (ProteOn) or Biotin-tag Capture Chip or a High Capacity Amine Chip (pre-immobilized with neutravidin; MASS-2). The ISVDs were injected at 6 different concentrations (between 1 and 4000 nM) and allowed to associate for 120s at 45 μL/min and dissociate for 600s-3600s at 45 μL/min. […] Evaluation of the sensorgrams was based on the 1:1 Langmuir dissociation model simultaneously fitting on and off-rates.

[11] = molecular target: T1, cyno FcRn/b2M; assay: SPR pH 6.0; remark: listed apart in the source
Experimental: as §2

[12] = molecular target: T2, human FcRn/b2M; assay: SPR pH 7.4; remark: listed apart in the source
Experimental: as §2

[13] = molecular target: T1, cyno FcRn/b2M; assay: SPR pH 7.4; remark: listed apart in the source
Experimental: as §2

[14] = molecular target: T2, human FcRn/b2M; assay: SPR pH 6.0; remark: listed apart in the source
Experimental: (§3) The affinity of the purified, multivalent ISVD constructs for human and cyno FcRn was determined on the MASS-2 (Sierra sensors, Gmbh) instrument, hFcRn/hb2M and cFcRn/cb2M was captured on a Biotin-tag Capture Chip or a High Capacity Amine Chip (pre-immobilized with neutravidin). The ISVD constructs were injected at 6 different concentrations (between 1 and 4000 nM) and allowed to associate for 120 s at 45 μL/min and dissociate for 600 s-3600 s at 45 μL/min. […] Evaluation of the sensorgrams was based on the 1:1 Langmuir dissociation model simultaneously fitting on and off-rates.

[15] = molecular target: T1, cyno FcRn/b2M; assay: SPR pH 6.0; remark: listed apart in the source
Experimental: as §3

[16] = molecular target: T2, human FcRn/b2M; assay: SPR pH 7.4; remark: listed apart in the source
Experimental: as §3

[17] = molecular target: T1, cyno FcRn/b2M; assay: SPR pH 7.4; remark: listed apart in the source
Experimental: as §3

[18] = molecular target: T3, human serum albumin (human, UniProt P02768 25-609); assay: SPR pH 6.0
T3 construct: also called HSA
Experimental: (§4) The affinity of the purified, multivalent ISVD constructs for human and mouse serum albumin (HSA and MSA, respectively) was determined on the ProteOn XPR36 (BioRad Laboratories, Inc.) instrument. […] The ISVD constructs were injected at 6 different concentrations (between 1 and 500 nM) and allowed to associate for 120 s at 45 μL/min and dissociate for 600s-3600s at 45 μL/min. Evaluation of the sensorgrams was based on the 1:1 Langmuir dissociation model simultaneously fitting on and off-rates.

[19] = molecular target: T4, mouse serum albumin (mouse, UniProt P07724 25-608); assay: SPR pH 6.0
T4 construct: also called MSA
Experimental: as §4

[20] = molecular target: T3, human serum albumin; assay: SPR pH 7.4
Experimental: as §4

[21] = molecular target: T4, mouse serum albumin; assay: SPR pH 7.4
Experimental: as §4

T1 sequence (Q8SPV9 24-297 limits assumed, chain 1 of 2): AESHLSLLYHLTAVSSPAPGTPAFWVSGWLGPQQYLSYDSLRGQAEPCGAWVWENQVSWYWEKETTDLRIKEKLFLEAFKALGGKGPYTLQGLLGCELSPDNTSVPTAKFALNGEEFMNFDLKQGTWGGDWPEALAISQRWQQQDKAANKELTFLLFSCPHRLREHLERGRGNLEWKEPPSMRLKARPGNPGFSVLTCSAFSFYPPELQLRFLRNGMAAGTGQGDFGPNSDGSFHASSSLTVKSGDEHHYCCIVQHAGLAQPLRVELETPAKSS
T1 sequence (Q8SPW0 21-119 limits assumed, chain 2 of 2): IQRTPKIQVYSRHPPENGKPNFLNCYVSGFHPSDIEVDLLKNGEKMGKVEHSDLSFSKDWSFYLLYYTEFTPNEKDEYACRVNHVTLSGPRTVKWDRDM
T2 sequence (chain, as listed by the source limits assumed, chain 1 of 2): as the sequence (Q8SPV9 24-297 limits assumed, chain 1 of 2) above, with D39N, Q44E, S99G, G189S, N190S, M217L, T269S counted along it
T2 sequence (P61769 21-119 limits assumed, chain 2 of 2): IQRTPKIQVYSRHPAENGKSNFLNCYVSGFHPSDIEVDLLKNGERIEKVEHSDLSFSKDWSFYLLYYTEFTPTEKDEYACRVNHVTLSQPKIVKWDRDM
T4 sequence (P07724 25-608 limits assumed): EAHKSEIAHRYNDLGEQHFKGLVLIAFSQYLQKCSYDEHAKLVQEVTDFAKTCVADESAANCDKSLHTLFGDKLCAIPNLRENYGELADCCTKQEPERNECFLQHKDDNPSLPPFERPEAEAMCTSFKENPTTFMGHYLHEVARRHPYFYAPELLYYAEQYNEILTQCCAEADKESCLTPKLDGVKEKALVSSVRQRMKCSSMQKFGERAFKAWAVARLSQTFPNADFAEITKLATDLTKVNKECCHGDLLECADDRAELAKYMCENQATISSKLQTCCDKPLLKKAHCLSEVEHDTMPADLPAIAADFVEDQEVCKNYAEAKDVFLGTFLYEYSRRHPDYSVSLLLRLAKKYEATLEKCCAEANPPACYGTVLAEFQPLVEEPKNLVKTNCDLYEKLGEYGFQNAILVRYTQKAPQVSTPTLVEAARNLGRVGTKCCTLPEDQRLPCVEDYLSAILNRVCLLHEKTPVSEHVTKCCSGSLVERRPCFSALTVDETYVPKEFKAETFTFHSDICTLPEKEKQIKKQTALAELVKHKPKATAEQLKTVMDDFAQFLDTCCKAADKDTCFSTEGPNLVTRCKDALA

B1: T0263018B11 T96E (VHH, name in Kabat numbering)
VHH: EVQLVESGGGVVQPGGSLRLSCAASGFTFSSYAMYWVRQAPGKGLEWVSAISSGGGSTDYADSVKGRFTISRDNSKNTLYLQMNSLRPEDTALYYCAADELYTSLTWYSYWGQGTLVTVSS
notes: FLAG3-His6 tagged
koff [1]: 0.0093 s⁻¹
koff [2]: 0.012 s⁻¹

B2: T026301064 (VHH, name in Kabat numbering)
VHH: EVQLVESGGGVVQPGGSLRLSCAASGFTFSSYDMYWVRQAPGKGLEWVSAISQGGGSTDYADSVKGRFTISRDNSKNTLYLQMNSLRPEDTALYYCAADTLYTSLTWYSYWGQGTLVTVSS
notes: tagless
koff [3]: 0.00046 s⁻¹
Kd [4]: 9.4 nM
Kd [5]: 3.8 nM
Kd [6]: 3700 nM
Kd [7]: 2400 nM
KD ratio pH 7.4/6.0 [8]: 394
KD ratio pH 7.4/6.0 [9]: 632

B3: T026301079 (VHH, name in Kabat numbering)
VHH: EVQLVESGGGVVQPGGSLRLSCAASGFTFSSYAMYWVRQAPGKGLEWVSAISQGGGSTDYADSVKGRFTISRDNSKNTLYLQMNSLRPEDTALYYCAADTLYTSLTSYSYWGQGTLVTVSS
notes: tagless
koff [3]: 0.0065 s⁻¹
Kd [4]: 120 nM
Kd [5]: 76 nM
Kd [7]: 5900 nM
KD ratio pH 7.4/6.0 [9]: 78

B4: T026301111 (VHH, name in Kabat numbering)
VHH: EVQLVESGGGVVQPGGSLRLSCAASGFTFSEYAMYWVRQAPGKGLEWVSAISQGGGSTDYADSVKGRFTISRDNSKNTLYLQMNSLRPEDTALYYCAADTLYTSLTWYSYWGQGTLVTVSS
notes: tagless
koff [3]: 0.0032 s⁻¹
Kd [4]: 77 nM
Kd [5]: 48 nM
Kd [6]: 5400 nM
Kd [7]: 5000 nM
KD ratio pH 7.4/6.0 [8]: 70
KD ratio pH 7.4/6.0 [9]: 104

B5: T026301234 (other, not shown: small tags and cut ends)
chain: DVQLVESGGGVVQPGGSLRLSCAASGFTFSSYAMYWVRQAPGKGLEWVSAISSGGGSTDYADSVKGRFTISRDNSKNTLYLQMNSLRPEDTALYYCAADTLYTSLTWYSYWGQGTLVTVSS
notes: pentavalent ISVD construct
Kd [10]: 26 nM
Kd [11]: 14 nM
Kd [12]: 740 nM
Kd [13]: 490 nM

B6: T026301170 (bispecific antibody)
chain: DVQLVESGGGVVQPGGSLRLSCAASGFTFSSYAMYWVRQAPGKGLEWVSAISSGGGSTDYADSVKGRFTISRDNSKNTLYLQMNSLRPEDTALYYCAADTLYTSLTWYSYWGQGTLVTVSSGGGGSGGGGSGGGGSGGGGSGGGGSGGGGSGGGGSEVQLVESGGGVVQPGGSLRLSCAASGFTFRSFGMSWVRQAPGKGPEWVSSISGSGSDTLYADSVKGRFTISRDNSKNTLYLQMNSLRPEDTALYYCTIGGSLSRSSQGTLVTVSSA
notes: bispecific ISVD construct; also called T0263018B11(E1D)-35GS-ALB23002-A
Kd [14]: 12 nM
Kd [15]: 7.9 nM
Kd [16]: 450 nM
Kd [17]: 290 nM
Kd [18]: 6.1 nM
Kd [19]: 67 nM
Kd [20]: 13 nM
Kd [21]: 85 nM
